This data set deals with the molecule itself. Description: ITC. In general terms: ITC needs no label: the signal is the heat of the interaction.

B1: HDP1 DNA-binding domain (HDP1 aa2991-3078) (domain or fragment, P. falciparum, UniProt A0A2I0C2C6 2991-3078, looked up)
chain: SEVQVSNINTPSSYNISARRRRRIGNNGPPSAEELNRLLNIQHLTIPEIATIYGVHRTTIARWCNIRNITSNSMNNSPGKRRKNEDNK
Turning to B1, the binding result is “binds”.
